# Assay results reported in publication PMC2600743 (The Journal of Cell Biology, 2008).
# T1: MBD-ankB (membrane-binding domain of human 220-kD ankyrin B, amino acids 1–957) (human, UniProt Q01484-2 1-957)
# T1 sequence (looked up): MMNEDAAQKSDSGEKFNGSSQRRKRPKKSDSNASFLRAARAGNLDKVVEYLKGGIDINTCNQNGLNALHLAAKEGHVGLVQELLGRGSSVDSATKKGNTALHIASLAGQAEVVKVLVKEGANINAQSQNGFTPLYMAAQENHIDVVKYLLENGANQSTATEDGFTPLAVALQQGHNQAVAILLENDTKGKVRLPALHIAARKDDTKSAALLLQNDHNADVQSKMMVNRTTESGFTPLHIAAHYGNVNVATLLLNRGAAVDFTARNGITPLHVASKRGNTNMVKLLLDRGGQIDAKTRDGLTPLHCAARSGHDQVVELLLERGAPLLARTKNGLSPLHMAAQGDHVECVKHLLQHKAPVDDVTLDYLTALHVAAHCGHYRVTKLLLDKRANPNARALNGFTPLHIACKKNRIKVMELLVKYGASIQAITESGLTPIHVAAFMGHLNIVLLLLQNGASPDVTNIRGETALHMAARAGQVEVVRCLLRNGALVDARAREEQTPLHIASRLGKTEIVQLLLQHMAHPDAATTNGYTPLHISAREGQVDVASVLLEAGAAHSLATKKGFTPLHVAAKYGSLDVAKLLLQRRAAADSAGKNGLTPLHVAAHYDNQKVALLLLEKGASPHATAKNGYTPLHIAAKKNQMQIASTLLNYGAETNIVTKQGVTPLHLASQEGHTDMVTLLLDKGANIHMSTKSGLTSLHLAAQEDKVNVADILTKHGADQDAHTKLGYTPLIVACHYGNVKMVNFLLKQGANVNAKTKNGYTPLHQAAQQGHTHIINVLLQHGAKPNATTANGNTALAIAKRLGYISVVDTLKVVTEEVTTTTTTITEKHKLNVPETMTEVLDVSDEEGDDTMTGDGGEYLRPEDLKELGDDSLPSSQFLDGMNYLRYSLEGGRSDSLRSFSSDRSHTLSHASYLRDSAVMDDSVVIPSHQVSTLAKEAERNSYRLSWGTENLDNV
# T2: MBD-ankG (membrane-binding domain of rat 270-kD ankyrin G, amino acids 1–981) (rat, UniProt O70511 1-981)
# T2 sequence (looked up): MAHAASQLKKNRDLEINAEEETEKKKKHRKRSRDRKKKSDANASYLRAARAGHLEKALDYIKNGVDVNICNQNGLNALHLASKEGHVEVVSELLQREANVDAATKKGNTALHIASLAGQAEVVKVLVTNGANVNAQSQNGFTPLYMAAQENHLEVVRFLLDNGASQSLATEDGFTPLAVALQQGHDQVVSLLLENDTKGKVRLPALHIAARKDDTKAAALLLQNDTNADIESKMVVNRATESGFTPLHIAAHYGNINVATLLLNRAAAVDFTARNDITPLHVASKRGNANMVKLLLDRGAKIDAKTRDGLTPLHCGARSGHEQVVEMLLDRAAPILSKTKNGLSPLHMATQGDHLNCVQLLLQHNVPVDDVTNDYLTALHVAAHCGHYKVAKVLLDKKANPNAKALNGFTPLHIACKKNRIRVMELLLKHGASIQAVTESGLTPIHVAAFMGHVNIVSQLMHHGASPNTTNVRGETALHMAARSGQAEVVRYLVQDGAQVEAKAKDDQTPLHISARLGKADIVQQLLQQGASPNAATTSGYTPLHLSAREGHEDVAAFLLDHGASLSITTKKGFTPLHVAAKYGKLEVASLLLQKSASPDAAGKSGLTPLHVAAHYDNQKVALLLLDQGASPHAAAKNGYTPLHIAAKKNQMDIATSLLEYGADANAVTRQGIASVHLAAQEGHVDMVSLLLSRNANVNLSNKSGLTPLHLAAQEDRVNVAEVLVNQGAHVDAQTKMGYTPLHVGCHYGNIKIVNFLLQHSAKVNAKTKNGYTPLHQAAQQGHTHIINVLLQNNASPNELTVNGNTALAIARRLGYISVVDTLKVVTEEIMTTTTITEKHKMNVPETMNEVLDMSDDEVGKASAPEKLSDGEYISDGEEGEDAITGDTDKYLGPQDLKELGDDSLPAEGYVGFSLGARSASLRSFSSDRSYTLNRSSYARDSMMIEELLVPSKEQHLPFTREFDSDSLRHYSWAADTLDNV
# Legend:
# [1] = biological target: ankyrin B (MBD-ankB) membrane-binding domain, 1–957 (UniProt Q01484); assay: SPR, GST-Nav1.2 captured on chip; details: reference: untreated immobilized fragment; sites S1112,S1123,S1124,S1126
# [2] = biological target: MBD-ank (Table II; ankB or ankG not said) membrane-binding domain; assay: SPR, GST-Nav1.2 captured on chip; details: reference: wild type, CK2-treated; sites S1124,S1126
# [3] = biological target: ankyrin G (MBD-ankG) membrane-binding domain, 1–981 (UniProt O70511); assay: SPR, GST-Nav1.2 captured on chip; details: reference: untreated immobilized fragment; sites S1112,S1123,S1124,S1126
# [4] = biological target: T1, MBD-ankB (membrane-binding domain of …); assay: SPR
# [5] = biological target: T2, MBD-ankG (membrane-binding domain of …); assay: SPR
KD [1],Kd [4] [µM],Molecule,other results
stronger; reference 1.3 ± 0.2 × 10−6,–,"Nav1.2 989–1,133 (from UniProt P04775) phosphorylated on chip with CK2",–
–,–,"Nav1.2 1,080–1,203 (from UniProt P04775) S1124-26A, CK2-treated",KD [2]: weaker; reference 1.2 10−9
stronger; reference 1.2 ± 0.4 × 10−6,–,"Nav1.2 1,080–1,203 (from UniProt P04775) phosphorylated on chip with CK2",KD [3]: stronger; reference 1.7 ± 0.5 × 10−6
–,1.3,"GST-Nav1.2 989–1,133 (domain or fragment, UniProt P04775 989-1133, looked up) DNLAATDDDNEMNNLQIAVGRMQKGIDFVKRKIREFIQKAFVRKQKALDEIKPLEDLNNKKDSCISNHTTIEIGKDLNYLKDGNGTTSGIGSSVEKYVVDESDYMSFINNPSLTVTVPIALGESDFENLNTEEFSSESDMEESKE",–
–,1.2,"GST-Nav1.2 1,080–1,203 (domain or fragment, UniProt P04775 1080-1203, looked up) SSVEKYVVDESDYMSFINNPSLTVTVPIALGESDFENLNTEEFSSESDMEESKEKLNATSSSEGSTVDIGAPAEGEQPEAEPEESLEPEACFTEDCVRKFKCCQISIEEGKGKLWWNLRKTCYK",Kd [5]: 1.7 µM
